Here are results for eight molecules from patent US20090155873A1, “BIOFUEL PRODUCTION” (BIO ARCHITECTURE LAB, INC., priority 2007, published 2009).

Assay type in all cases: biochemical
Data set [1] can be described thus: NADPH Production Assay (oxidation of 4-octanol). To be noted: NADP+, 30° C., FIG. 30B. How it is done: Various secondary alcohol dehydrogenases (2ADHs) were isolated from Pseudomonas putida KT2440, Pseudomonas fluorescens Pf-5, and Klebsiella pneumoniae MGH 78578. All vectors were transformed in BL21(DE3) competent cells and expression of the genes encoding the proteins of interest was induced with IPTG (via the T7 promoter). The cells were lysed, proteins were extracted and then purified on Ni-NTA columns. Final protein concentration in the Ni-NTA eluate was diluted to 0.15 mg/mL prior to assays.
[…] consumption and production assays were performed using a THERMOmax microplate reader in the kinetic mode, monitoring the NADPH absorbance peak at 340 nm until the reaction reached equilibrium. […] These reaction conditions are found in Table 4 below.

Data set [2] can be described thus: Assay for D-mannuronate hydrogenase (NADPH dependent hydrogenation). To be noted: cell lysate, absorbance at 340 nm for 30 min, FIG. 7B. On the procedure: (§1) To identify D-mannuronate hydrogenase, a NADPH dependent D-mannuronate hydrogenation assay was performed. 20 μl of prepared cell lysate containing each ADH was added to 160 μl of D-mannuronate solution prepared in the above section. 20 μl of 2.5 mg/ml of NADPH solution (20 mM Tris-HCl, pH 8.0) was added to initiate the hydrogenation reaction. The consumption of NADPH was monitored an absorbance at 340 nm for 30 min using the kinetic mode of ThermoMAX 96 well plate reader (Molecular Devises). E. coli cell lysate containing alcohol dehydrogenase (ADH) 10 lacking a portion of N-terminal domain was used in a control reaction mixture.

The nature of data set [3]: Assay for DEHU hydrogenase (NADPH dependent DEHU hydrogenation). Conditions: cell lysate, absorbance at 340 nm for 30 min, FIG. 7A. How it is done:
as §1, with “identify DEHU” for “identify D-mannuronate”, “dependent DEHU” for “dependent D-mannuronate”, “of 20-fold deluted DEHU” for “of D-mannuronate”, “hydrogenation reaction, as a preliminary study using cell lysate of A. tumefaciens C58 have shown that DEHU hydrogenation requires NADPH as a co-factor.” for “hydrogenation reaction.”

B1: 2ADH-8: secondary alcohol dehydrogenase isolated from Pseudomonas putida KT2440, SEQ ID NO:124 (protein)
chain: MSLQGKVALVTGASRGIGQAIALELGRQGATVIGTATSASGAERIAATLKEHGITGTGMELNVTSAESVEAVLAAIGEQFGAPAILVNNAGITRDNLMLRMKDDEWFDVIDTNLNSLYRLSKGVLRGMTKARWGRIISIGSVVGAMGNAGQANYAAAKAGLEGFSRALAREVGSRGITVNSVTPGFIDTDMTRELPEAQREALQTQIPLGRLGQADEIAKVVSFLASDGAAYVTGATVPVNGGMYM
modifications: Pseudomonas putida KT2440
As for B1, in data set [1], the “oxidation of 4-octanol measured by NADPH production” value (“oxidation of 4-octanol measured” below) is recorded as “catalyze the oxidation of 4-octanol in the presence of NADP+”.

B2: ADH9: alcohol dehydrogenase ADH9 Atu4087 isolated from Agrobacterium tumefaciens C58, SEQ ID NO:86 (protein)
chain: MKAIVAHGAKDVRIEDRPEEKPGPGEVRLRLARGGICGSDLHYYNHGGFGAVRLREPMVLGHEVSAVIEELGEGVEGLKIGGLVAVSPSRPCRTCRFCQEGLHNQCLNMRFYGSAMPFPHIQGAFREILVADALQCVPADGLSAGEAAMAEPLAVTLHATRRAGDLLGKRVLVTGCGPIGILSILAARRAGAAEIVATDLSDFTLGKAREAGADRVINSKDEPDALAAYGANKGTFDILYECSGAAVALAGGITALRPRGIIVQLGLGGDMSLPMMAITAKELDLRGSFRFHEEFATGVELMRKGLIDVKPFITQTVDLADAISAFEFASDRSRAMKVQIAFS
modifications: Agrobacterium tumefaciens C58
On to B2, for which the “mannuronate hydrogenase activity monitored by NADPH consumption” value in data set [2] is given as “significant mannuronate hydrogenase activity”.

B3: 2ADH-5: secondary alcohol dehydrogenase isolated from Pseudomonas putida KT2440, SEQ ID NO:118 (protein)
chain: MSKQLTLEGKVALVQGGSRGIGAAIVRRLAREGAQVAFTYVSSAGPAEELAREITENGGKALALRADSADAAAVQLAVDDTEKALGRLDILVNNAGVLAVAPVTEFDLADFDHMLAVNVRSVFVASQAAARYMGQGGRIINIGSTNAERMPFAGGAPYAMSKSALVGLTRGMARDLGPQGITVNNVQPGPVDTDMNPASGEFAESLIPLMAIGRYGEPEEIASFVAYLAGPEAGYITGASLTVDGGFAA
modifications: Pseudomonas putida KT2440
Take B3: the “oxidation of 4-octanol measured” value in data set [1] is reported as “catalyze the oxidation of 4-octanol in the presence of NADP+”.

B4: 2ADH-10: secondary alcohol dehydrogenase isolated from Pseudomonas putida KT2440, SEQ ID NO:128 (protein)
chain: MSKTHLFDLDGKIAFVSGASRGIGEAIAHLLAQQGAHVIVSSRKLDGCQQVADAIIAAGGKATAVACHIGELEQIQQVFAGIREQFGRLDVLVNNAATNPQFCNVLDTDPGAFQKTVDVNIRGYFFMSVEAGKLMRENGGGSIINVASINGVSPGLFQGIYSVTKAAVINMTKVFAKECAPFGIRCNALLPGLTDTKFASALVKNEAILNAALQQIPLKRVADPKEMAGAVLYLASDASSYTTGTTLNVDGGFLS
modifications: Pseudomonas putida KT2440
As for B4, in data set [1], the “oxidation of 4-octanol measured” value was “catalyze the oxidation of 4-octanol in the presence of NADP+”.

B5: ADH3: alcohol dehydrogenase ADH3 Atu0626 isolated from Agrobacterium tumefaciens C58, SEQ ID NO:74 (protein)
chain: MTKTMKAAVVRAFGKPLTIEEVAIPDPGPGEILINYKATGVCHTDLHAATGDWPVKPNPPFIPGHEGAGYVAKIGAGVTGIKEGDRAGTPWLYTACGCCIPCRTGWETLCPSQKNSGYSVNGSFAEYGLADPKFVGRLPDNLDFGPAAPVLCAGVTVYKGLKETEVRPGEWVVISGIGGLGHMAVQYAKAMGMHVVAADIFDDKLALAKKLGADVVVNGRAPDAVEQVQKATGGVHGALVTAVSPKAMEQAYGFLRSKGTMALVGLPPGFISIPVFDTVLKRITVRGSIVGTRQDLEEALTFAGEGKVAAHFSWDKLENINDIFHRMEEGKIDGRIVVDLAA
modifications: Agrobacterium tumefaciens C58
In the case of B5, the “mannuronate hydrogenase activity monitored by NADPH consumption” value in data set [2] is recorded as “significant mannuronate hydrogenase activity”.

B6: ADH1: alcohol dehydrogenase ADH1 Atu1557 isolated from Agrobacterium tumefaciens C58, SEQ ID NO:70 (protein)
chain: MFTTSAYACDDGSSPMKLATIRRRDPGPRDVEIEIEFCGVCHSDIHTARSEWPGSLYPCVPGHEIVGRVGRVGAQVTRFKTGDRVGVGCIVDSCRECASCAEGLEQYCENGMTGTYNSPDKAMGGGAHTLGGYSAHVVVDDRYVLNIPEGLDPAAAAPLLCAGITTYSPLRHWNAGPGKRVGVVGLGGLGHMAVKLANAMGATVVMITTSPGKAEDAKKLGAHEVIISRDAEQMKKATSSLDLIIDAVAADHDIDAYLALLKRDGALVQVGAPEKPLSVMAFSLIPGRKTFAGSMIGGIPETQEMLDFCAEKGIAGEIEMIDIDQINDAYERMIKSDVRYRFVIDMKSLPRQKAA
modifications: Agrobacterium tumefaciens C58
B6: the “DEHU hydrogenase activity monitored by NADPH consumption” value in data set [3] is reported as “significant DEHU hydrogenase activity”.

B7: ADH4: alcohol dehydrogenase ADH4 Atu5240 isolated from Agrobacterium tumefaciens C58, SEQ ID NO:76 (protein)
chain: MTGANQPWEVQEVPVPKAEPGLVLVKIHASGMCYTDVWATQGAGGDIYPQTPGHEVVGEIIEVGAGVHTRKVGDRVGTTWVQSSCGRCSYCRQNRPLTGQTAMNCDSPRTTGFATQGGHAEYIAISAEGTVLLPDGLDYTDAAPMMCAGYTTWSGLRDAEPKPGDRIAVLGIGGLGHVAVQFSKALGFETIAITHSPDKHKLATDLGADIVVADGKELLEAGGADVLLVTTNDFDTAEKAMAGVRPDGRIVLCALDFSKPFSIPSDGKPFHMMRQRVVGSTHGGQHYLAEILDLAAKGKVKPIVETFALEQATEAYERLSTGKMRFRGVFLPHGA
modifications: Agrobacterium tumefaciens C58
For B7, in data set [2], the “mannuronate hydrogenase activity monitored by NADPH consumption” value was “significant mannuronate hydrogenase activity”.

B8: ADH2: alcohol dehydrogenase ADH2 Atu2022 isolated from Agrobacterium tumefaciens C58, SEQ ID NO:72 (protein)
chain: MAIARGYAATDASKPLTPFTFERREPNDDDVVIDIKYAGICHSDIHTVRNEWHNAVYPIVPGHEIAGVVRAVGSKVTRFKVGDHVGVGCFVDSCVGCATRDVDNEQYMPGLVQTYNSVERDGKSATQGGYSDHIVVREDYVLSIPDNLPLDASAPLLCAGITLYSPLQHWNAGPGKKVAIVGMGGLGHMGVKIGSAMGADITVLSQTLSKKEDGLKLGAKEYYATSDASTFEKLAGTFDLILCTVSAEIDWNAYLNLLKVNGTMVLLGVPEHAIPVHAFSVIPARRSLAGSMIGSIKETQEMLDFCGKHDIVSEIETIGIKDVNEAYERVLKSDVRYRFVIDMASLDA
modifications: Agrobacterium tumefaciens C58
In the case of B8, in data set [3], the “DEHU hydrogenase activity monitored by NADPH consumption” value is recorded as “significant DEHU hydrogenase activity”.
